Data from patent publication CN108059680A (BEIJING DONGFANG BIOTECH CO LTD, dated 2018).

Molecular target: T1, CD20 (UniProt P11836 1-297, limits assumed)
T1 construct: whole, on cells; also called 细胞表面CD20; Raji细胞(过表达CD20细胞系)
T1 sequence (looked up): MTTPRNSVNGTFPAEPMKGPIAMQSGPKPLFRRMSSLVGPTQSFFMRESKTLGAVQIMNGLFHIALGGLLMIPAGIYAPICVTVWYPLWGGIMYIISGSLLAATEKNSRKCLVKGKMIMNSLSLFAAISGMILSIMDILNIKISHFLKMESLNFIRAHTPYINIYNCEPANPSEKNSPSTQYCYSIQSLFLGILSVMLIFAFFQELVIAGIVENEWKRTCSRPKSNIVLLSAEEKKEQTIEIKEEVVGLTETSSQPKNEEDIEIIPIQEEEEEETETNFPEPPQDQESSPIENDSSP
Assay: flow cytometry on Raji cells (CD20-overexpressing), Alexa488 anti-human IgG-Fc detection

binding result: binds
B1: JY052 (bispecific antibody, human IgG4 S228P, kappa)
light: DIVMTQTPLSLPVTPGEPASISCRSSKSLLHSNGITYLYWYLQKPGQSPQLLIYQMSNLVSGVPDRFSGSGSGTDFTLKISRVEAEDVGVYYCAQNLELPYTFGGGTKVEIKRTVAAPSVFIFPPSDEQLKSGTASVVCLLNNFYPREAKVQWKVDNALQSGNSQESVTEQDSKDSTYSLSSTLTLSKADYEKHKVYACEVTHQGLSSPVTKSFNRGEC
heavy: QVQLVQSGAEVKKPGSSVKVSCKASGYAFSYSWINWVRQAPGQGLEWMGRIFPGDGDTDYNGKFKGRVTITADKSTSTAYMELSSLRSEDTAVYYCARNVFDGYWLVYWGQGTLVTVSSASTKGPSVFPLAPCSRSTSESTAALGCLVKDYFPEPVTVSWNSGALTSGVHTFPAVLQSSGLYSLSSVVTVPSSSLGTKTYTCNVDHKPSNTKVDKRVESKYGPPCPPCPAPEFLGGPSVFLFPPKPKDTLMISRTPEVTCVVVDVSQEDPEVQFNWYVDGVEVHNAKTKPREEQFNSTYRVVSVLTVLHQDWLNGKEYKCKVSNKGLPSSIEKTISKAKGQPREPQVYVLPPSQEEMTKNQVSLLCLVKGFYPSDIAVEWESNGQPENNYLTWPPVLDSDGSFFLYSRLTVDKSRWQEGNVFSCSVMHEALHNHYTQKSLSLSLG
chain: not shown
notes: Three-chain bispecific: anti-CD20 light-heavy pair plus anti-CD3 single-chain Fab-Fc, joined by hinge disulfides and a knob-into-hole structure in CH3; also called 抗CD20×CD3的双特异抗体; 针对CD20和CD3的双特异性抗体
